Reference: US20220089647A1 (FUJIFILM, published 2022)
Starred links: 1 amine or outer side, 2 acyl side, 3 side chain; linkers in the order of their positions; H or OH if unused. Positions of bridges follow the written chain, without caps; N, C: chain ends. Non-standard residues stand in square brackets, D forms with d. Primed or numbered codes have the meaning given here. No end group written: not given here. Dab(acetyl)″ = 2-amino-4-(acetylamino)butanoic acid, acetyl CH3 carbon bonded to the S of Hcy (S-CH2-C(=O)-NH-), O=C(C[*:3])NCC[C@H](N[*:1])C(=O)[*:2]; Dab(acetyl) = 2-amino-4-acetylamino-butanoic acid residue (N-γ-acetyl-diaminobutyric acid), CC(=O)NCC[C@H](N[*:1])C(=O)[*:2]; Dab(acetyl)(3) = 2-amino-4-(acetylamino)butanoic acid (Dab with N-γ-acetyl), CC(=O)NCC[C@H](N[*:1])C(=O)[*:2]; COCH2 = acetyl group that carries the bridge; hCys = N[C@@H](CCS)C(=O)O; Dab = NCC[C@H](N)C(=O)O

B1: Cyclic peptide 110 (peptide)
peptide: KKKKA[hCys]VPRGDTFA[Dab(acetyl)(3)]A
modifications: thioether 6-15
B2: Cyclic peptide 54 (peptide)
peptide: KKKG[hCys]IPRGDTFR[Dab(acetyl)″]A
modifications: thioether 5-14
B3: Cyclic peptide 88 (peptide)
peptide: KKKA[hCys]IPRGDTFG[Dab(acetyl)]A
modifications: thioether 5-14
B4: Cyclic peptide 107 (peptide)
peptide: KKKA[hCys]VPRGDTFA[Dab(acetyl)″]G
modifications: thioether 5-14
B5: Cyclic peptide 98 (peptide)
peptide: KKKG[hCys]VPRGDSFA[Dab(acetyl)]A
modifications: thioether 5-14
B6: Cyclic peptide 136 (peptide)
peptide: KKKAXVPRGDTFAXA
modifications: not fully specified; KKKA(Dab(acetyl))VPRGDTFA-(Pen)-A; thioether bond Dab(acetyl)-Pen
B7: Cyclic peptide 90 (peptide)
peptide: KKKA[hCys]IPRGDAFA[Dab(acetyl)]A
modifications: thioether 5-14
B8: Cyclic peptide 99 (peptide)
peptide: KKKG[hCys]VPRGDSFA[Dab(acetyl)]G
modifications: thioether 5-14
B9: Cyclic peptide 55 (peptide)
peptide: KKKG[hCys]IPRGDTFR[Dab(acetyl)″]G
modifications: thioether 5-14
B10: Cyclic peptide 85 (peptide)
peptide: KKKAXIPRGDTFAXG
modifications: not fully specified; KKKA-(Hcy)-IPRGDTFA(Dab(acetyl))G; thioether bond Hcy-Dab(acetyl)
B11: Cyclic peptide 78 (peptide)
peptide: KKKAXIPRGDVFRXA
modifications: not fully specified; KKKA-(Hcy)-IPRGDVFR(Dab(acetyl))A; thioether bond Hcy-Dab(acetyl)
B12: Cyclic peptide 86 (peptide)
peptide: KKKG[hCys]IPRGDTFA[Dab(acetyl)]A
modifications: thioether 5-14
B13: Cyclic peptide 2 (peptide)
peptide: KKKA[hCys]IPRGDNFR[Dab](COCH2)A
modifications: thioether 5-14
B14: Cyclic peptide 105 (peptide)
peptide: KKKG[hCys]VPRGDTFA[Dab(acetyl)″]G
modifications: thioether 5-14
B15: Cyclic peptide 74 (peptide)
peptide: KKKAXVPRGDTFRXA
modifications: not fully specified; KKKA-(Hcy)-VPRGDTFR(Dab(acetyl))A; thioether bond Hcy-Dab(acetyl)
B16: Cyclic peptide 77 (peptide)
peptide: KKKAXISRGDTFRXA
modifications: not fully specified; KKKA-(Hcy)-ISRGDTFR(Dab(acetyl))A; thioether bond Hcy-Dab(acetyl)
B17: Cyclic peptide 108 (peptide)
peptide: KKKA[hCys]VPRGDTFA[Dab(acetyl)″]A
modifications: thioether 5-14
B18: Cyclic peptide 84 (peptide)
peptide: KKKGXIPRGDTFAXG
modifications: not fully specified; KKKG-(Hcy)-IPRGDTFA(Dab(acetyl))G; thioether bond Hcy-Dab(acetyl)
B19: Cyclic peptide 97 (peptide)
peptide: KKKA[hCys]VPRGDSFA[Dab(acetyl)]G
modifications: thioether 5-14
B20: Cyclic peptide 122 (peptide)
peptide: KKKAXVPRGDTFAXA
modifications: not fully specified; KKKA(Dab(acetyl))VPRGDTFA-(Hcy)-A; thioether bond Dab(acetyl)-Hcy
B21: Cyclic peptide 95 (peptide)
peptide: KKKG[hCys]IPRGDSFA[Dab(acetyl)]G
modifications: thioether 5-14
B22: Cyclic peptide 83 (peptide)
peptide: KKKAXIPRGDTFSXA
modifications: not fully specified; KKKA-(Hcy)-IPRGDTFS(Dab(acetyl))A; thioether bond Hcy-Dab(acetyl)
B23: Cyclic peptide 27 (peptide)
peptide: KKKG[hCys]LPRGDNFR[Dab](COCH2)A
modifications: thioether 5-14
B24: Cyclic peptide 70 (peptide)
peptide: KKKGXVPRGDTFRXA
modifications: not fully specified; KKKG-(Hcy)-VPRGDTFR(Dab(acetyl))A; thioether bond Hcy-Dab(acetyl)
B25: Cyclic peptide 91 (peptide)
peptide: KKKA[hCys]VPRGDAFA[Dab(acetyl)]A
modifications: thioether 5-14
B26: Cyclic peptide 89 (peptide)
peptide: KKKA[hCys]VTRGDTFR[Dab(acetyl)]A
modifications: thioether 5-14
B27: Cyclic peptide 69 (peptide)
peptide: KKKGXEPRGDTFRXA
modifications: not fully specified; KKKG-(Hcy)-EPRGDTFR(Dab(acetyl))A; thioether bond Hcy-Dab(acetyl)
B28: Cyclic peptide 93 (peptide)
peptide: KKKA[hCys]IPRGDSFA[Dab(acetyl)]G
modifications: thioether 5-14
B29: Cyclic peptide 96 (peptide)
peptide: KKKA[hCys]VPRGDSFA[Dab(acetyl)]A
modifications: thioether 5-14
B30: Cyclic peptide 56 (peptide)
peptide: KKKA[hCys]IPRGDTFR[Dab(acetyl)″]A
modifications: thioether 5-14
B31: Cyclic peptide 1 (peptide)
peptide: KKKG[hCys]IPRGDNFR[Dab(acetyl)(3)]A
modifications: thioether 5-14
B32: Cyclic peptide 75 (peptide)
peptide: KKKAXTPRGDTFRXA
modifications: not fully specified; KKKA-(Hcy)-TPRGDTFR(Dab(acetyl))A; thioether bond Hcy-Dab(acetyl)
B33: Cyclic peptide 106 (peptide)
peptide: KKKG[hCys]VPRGDTFA[Dab(acetyl)″]A
modifications: thioether 5-14
B34: Cyclic peptide 92 (peptide)
peptide: KKKA[hCys]IPRGDSFA[Dab(acetyl)]A
modifications: thioether 5-14
B35: Cyclic peptide 94 (peptide)
peptide: KKKG[hCys]IPRGDSFA[Dab(acetyl)]A
modifications: thioether 5-14
B36: Cyclic peptide 71 (peptide)
peptide: KKKGXLPRGDTFRXA
modifications: not fully specified; KKKG-(Hcy)-LPRGDTFR(Dab(acetyl))A; thioether bond Hcy-Dab(acetyl)
B37: Cyclic peptide 87 (peptide)
peptide: KKKA[hCys]IPRGDTFA[Dab(acetyl)]A
modifications: thioether 5-14
B38: Cyclic peptide 103 (peptide)
peptide: [hCys]VPRGDTFA[Dab(acetyl)″]KKK
modifications: thioether 1-10
B39: Cyclic peptide 104 (peptide)
peptide: KKK[hCys]VPRGDTFA[Dab(acetyl)″]
modifications: thioether 4-13
B40: Cyclic peptide 101 (peptide)
peptide: KKK[hCys]IPRGDSFA[Dab(acetyl)″]
modifications: thioether 4-13
B41: Cyclic peptide 62 (peptide)
peptide: KKK[hCys]IPRGDTFA[Dab(acetyl)″]
modifications: thioether 4-13
B42: Cyclic peptide 61 (peptide)
peptide: KKK[hCys]IPRGDTFR[Dab(acetyl)″]
modifications: thioether 4-13
B43: Cyclic peptide 11 (peptide)
peptide: KKK[hCys]IPRGDNFR[Dab(acetyl)(3)]
modifications: thioether 4-13
B44: Cyclic peptide 102 (peptide)
peptide: KKK[hCys]VPRGDSFA[Dab(acetyl)″]
modifications: thioether 4-13
B45: Cyclic peptide 100 (peptide)
peptide: A[hCys]IPRGDSFA[Dab(acetyl)″]AKKK
modifications: thioether 2-11
B46: Cyclic peptide 111 (peptide)
peptide: KKKKKA[hCys]VPRGDTFA[Dab(acetyl)″]A
modifications: thioether 7-16
B47: Cyclic peptide 109 (peptide)
peptide: A[hCys]VPRGDTFA[Dab(acetyl)″]AKKK
modifications: thioether 2-11
B48: Cyclic peptide 112 (peptide)
peptide: KKKKKKA[hCys]VPRGDTFA[Dab(acetyl)″]A
modifications: thioether 8-17
B49: Cyclic peptide 60 (peptide)
peptide: KKK[hCys]IPRGDTF[Dab(acetyl)″]A
modifications: thioether 4-12

Biological target: T1, human integrin αvβ5 (human, UniProt P06756 31-992; P18084 24-719, limits assumed)
T1 construct: Heterodimer flowed as analyte at 30, 100, 300 and 1,000 nM in HEPES buffer with 5 mM MgCl2
T1 sequence (P06756 31-992 limits assumed, chain 1 of 2): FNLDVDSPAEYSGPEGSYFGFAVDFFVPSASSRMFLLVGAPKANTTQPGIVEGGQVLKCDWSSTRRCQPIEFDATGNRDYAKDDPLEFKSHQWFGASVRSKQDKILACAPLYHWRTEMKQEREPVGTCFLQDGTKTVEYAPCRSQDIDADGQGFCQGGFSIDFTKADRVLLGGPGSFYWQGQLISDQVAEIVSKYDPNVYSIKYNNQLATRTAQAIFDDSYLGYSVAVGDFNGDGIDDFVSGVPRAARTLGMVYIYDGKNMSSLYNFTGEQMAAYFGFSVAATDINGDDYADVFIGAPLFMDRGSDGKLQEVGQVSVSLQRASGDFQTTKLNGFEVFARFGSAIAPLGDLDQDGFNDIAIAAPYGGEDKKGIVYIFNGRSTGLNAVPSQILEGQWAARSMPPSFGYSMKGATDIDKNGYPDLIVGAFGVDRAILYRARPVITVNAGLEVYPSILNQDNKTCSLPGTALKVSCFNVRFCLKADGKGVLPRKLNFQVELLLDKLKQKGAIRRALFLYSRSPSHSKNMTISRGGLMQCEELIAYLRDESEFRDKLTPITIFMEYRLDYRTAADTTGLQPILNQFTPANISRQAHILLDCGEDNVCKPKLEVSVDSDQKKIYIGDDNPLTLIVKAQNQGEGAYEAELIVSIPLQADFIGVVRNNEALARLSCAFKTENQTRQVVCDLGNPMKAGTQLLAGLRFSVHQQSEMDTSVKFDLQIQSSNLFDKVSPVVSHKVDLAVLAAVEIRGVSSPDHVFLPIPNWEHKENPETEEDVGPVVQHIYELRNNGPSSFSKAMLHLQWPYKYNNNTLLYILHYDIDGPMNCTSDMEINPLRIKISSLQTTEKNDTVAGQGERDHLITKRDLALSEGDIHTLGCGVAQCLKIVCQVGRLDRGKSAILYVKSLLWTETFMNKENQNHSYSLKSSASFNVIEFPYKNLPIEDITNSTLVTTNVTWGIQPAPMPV
T1 sequence (P18084 24-719 limits assumed, chain 2 of 2): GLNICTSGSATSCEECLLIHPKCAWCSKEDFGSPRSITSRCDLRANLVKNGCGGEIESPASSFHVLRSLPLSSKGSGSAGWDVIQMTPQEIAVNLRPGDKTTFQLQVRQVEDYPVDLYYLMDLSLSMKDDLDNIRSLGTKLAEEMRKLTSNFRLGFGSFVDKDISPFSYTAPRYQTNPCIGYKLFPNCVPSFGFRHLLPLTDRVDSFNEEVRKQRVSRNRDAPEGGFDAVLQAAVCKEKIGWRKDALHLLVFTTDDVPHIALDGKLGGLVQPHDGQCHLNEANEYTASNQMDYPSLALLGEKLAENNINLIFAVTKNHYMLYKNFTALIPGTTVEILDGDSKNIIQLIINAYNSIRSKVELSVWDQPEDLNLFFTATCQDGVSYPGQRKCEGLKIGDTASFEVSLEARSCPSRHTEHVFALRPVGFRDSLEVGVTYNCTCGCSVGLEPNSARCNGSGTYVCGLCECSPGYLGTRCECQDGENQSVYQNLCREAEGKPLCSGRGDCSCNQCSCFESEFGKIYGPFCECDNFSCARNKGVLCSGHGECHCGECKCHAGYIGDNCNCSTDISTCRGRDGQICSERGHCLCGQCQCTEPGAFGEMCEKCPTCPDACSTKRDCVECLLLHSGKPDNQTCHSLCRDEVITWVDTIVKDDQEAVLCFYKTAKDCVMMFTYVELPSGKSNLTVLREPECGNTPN
Test: SPR, Biacore 3000, peptide immobilised; A = KD 50 nM or less
Experimental: However, only for the cyclic peptides 125, 126, and 127, in which the number of lysine residues having an amino group as the immobilizing functional group was zero, the amount of the sample solution to be supplied to the sensor chip was set to 500 μL instead of 20 μL. Further, 70 μL of the mixed aqueous solution of 0.2 M EDC and 0.04 M NHS was added to another flow channel of the same sensor chip without immobilizing the sample, and then blocking treatment and washing treatment were carried out. Hereinafter, the obtained immobilization-treated sensor chip is referred to as an “immobilization-treated sensor chip A”.
After adding human integrin αvβ5 for 10 minutes at 25° C., which was diluted to 30 nM using a HEPES buffer solution to which magnesium chloride was added to 5 mM, in each flow channel of the immobilization-treated sensor chip A prepared in (1) above, the same HEPES buffer solution (containing 5 mM magnesium chloride) was allowed to flow as a running buffer for 30 minutes, and measurement was carried out with Biacore 3000. Then, a regeneration treatment of removing human integrin αvβ5 was carried out by allowing a 0.5 M EDTA aqueous solution to flow through each flow channel for 10 minutes. Further, the above-described measurement process consisting of adding integrin for 10 minutes, allowing a running buffer to flow for 30 minutes, carrying out measurement with Biacore 3000, and carrying out regeneration treatment with 0.5 M EDTA aqueous solution was carried out in the same manner for 100 nM human integrin αvβ5, 300 nM human integrin αvβ5, and 1,000 nM human integrin αvβ5. Dissociation constant between the cyclic peptide and human integrin αvβ5 was calculated from the difference between the value measured by Biacore 3000 in the flow channel immobilized with the cyclic peptide and the value measured by Biacore 3000 in the flow channel unimmobilized with the cyclic peptide, in a case where each concentration of human integrin αvβ5 was allowed to flow, and the integrin binding property was evaluated according to the following evaluation standards. It is preferable that the evaluation result satisfies the evaluation standard A, B, or C.

Binder | dissociation constant [nM] | dissociation constant (KD) [nM]
B1 | ≤ 50 | –
B2 | – | ≤ 50
B3 | ≤ 50 | –
B4 | ≤ 50 | –
B5 | ≤ 50 | –
B6 | ≤ 50 | –
B7 | ≤ 50 | –
B8 | ≤ 50 | –
B9 | – | ≤ 50
B10 | ≤ 50 | –
B11 | ≤ 50 | –
B12 | ≤ 50 | –
B13 | – | ≤ 50
B14 | ≤ 50 | –
B15 | ≤ 50 | –
B16 | ≤ 50 | –
B17 | ≤ 50 | –
B18 | ≤ 50 | –
B19 | ≤ 50 | –
B20 | ≤ 50 | –
B21 | ≤ 50 | –
B22 | ≤ 50 | –
B23 | – | ≤ 50
B24 | ≤ 50 | –
B25 | ≤ 50 | –

Binder | dissociation constant [nM] | dissociation constant (KD) [nM]
B26 | ≤ 50 | –
B27 | ≤ 50 | –
B28 | ≤ 50 | –
B29 | ≤ 50 | –
B30 | – | ≤ 50
B31 | – | ≤ 50
B32 | ≤ 50 | –
B33 | ≤ 50 | –
B34 | ≤ 50 | –
B35 | ≤ 50 | –
B36 | ≤ 50 | –
B37 | ≤ 50 | –
B38 | ≤ 50 | –
B39 | ≤ 50 | –
B40 | ≤ 50 | –
B41 | ≤ 50 | –
B42 | ≤ 50 | –
B43 | – | ≤ 50
B44 | ≤ 50 | –
B45 | ≤ 50 | –
B46 | ≤ 50 | –
B47 | ≤ 50 | –
B48 | ≤ 50 | –
B49 | – | ≤ 50
